From the supplement of paper PMC10567573

B1: FBXO3 (parent)
chain: FIDTYSDVGRYIDHYAAIKKAWDD
B2: SEC22B (parent)
chain: FPKKLAFAYLEDLHSEFDEQHGKK

Variants of: B1
Assay: protein stability index of a GFP-peptide fusion (GPS, HEK-293T) (PSI 1-6); higher = more stable
Conditions: c terminus: a fixed tail appended
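Note: lentivirally expressed fusions sorted by FACS into six bins by GFP to DsRed ratio, PSI derived from sequencing read proportions per bin multiplied by bin number.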

Protein stability index, by site and new letter:
T4: Y 1.82 | E 2.67 | L 1.89 | C 1.55 | P 1.86 | F 2.28 | M 1.89 | I 1.94 | G 3.57 | D 2.04 | S 1.89 | K 1.83 | A 2.41 | N 2.02 | V 1.91 | H 1.88 | R 2.12 | Q 1.59 | W 1.37
I2: G 3.01 | H 2.47 | W 2.45 | T 2.32 | S 3.14 | N 3.21 | Y 2.5 | F 2.63 | K 3.03 | E 3.59 | D 3.65 | A 2.45 | R 3.03 | P 3 | C 2.4 | Q 2.52 | M 2.41 | L 2.39 | V 2.1
V8: I 2.62 | L 1.92 | E 2.32 | F 1.79 | M 2.03 | C 1.9 | W 1.62 | Y 1.81 | A 1.79 | H 1.82 | T 1.65 | R 1.59 | D 3.07 | N 2.2 | G 2.07 | Q 1.79 | S 1.72 | K 2.02 | P 2.72
D3: M 2.56 | W 1.92 | Q 1.82 | L 2.3 | P 2.01 | V 2.63 | G 3.01 | F 1.38 | Y 2.46 | N 1.74 | H 1.81 | S 2.06 | R 1.91 | C 1.57 | K 1.91 | A 2 | T 1.62 | I 2.33 | E 2.14
Y5: K 2.44 | P 3.12 | V 2.47 | D 2.9 | E 2.8 | R 2.45 | C 2.84 | L 1.96 | H 2.13 | M 2.1 | F 2.19 | G 2.21 | N 2.21 | Q 2.2 | A 2.25 | S 2.5 | W 2.27 | I 2.05 | T 2.23
F1: H 3.58 | Y 2.09 | P 3.62 | L 3.22 | I 2.56 | E 3.21 | A 3.39 | M 2.79 | T 3.74 | C 2.87 | N 3.57 | V 3.28 | K 2.47 | G 3.05 | S 3.64 | Q 3.41 | W 2.58 | D 3.74 | R 3.09
G9: A 1.62
D7: K 2.19 | Y 2.01 | L 1.93 | H 1.63 | T 1.68 | E 1.48 | W 2.67 | R 2.14 | M 2.64 | P 2.16 | N 1.77 | F 2.79 | I 1.75 | Q 1.53 | C 1.86 | A 1.21 | S 2.32 | G 2.33 | V 2.43
S6: E 1.62 | A 1.97 | I 2.14 | M 1.77 | G 1.94 | L 2.17 | W 3.09 | D 1.69 | Y 1.54 | P 2.03 | F 1.6 | T 1.65 | N 1.83 | K 1.65 | Q 1.89 | V 2.35 | R 3.1 | C 2.12 | H 2.06

Variants of: B2
Assay: as above
Conditions: c terminus: a fixed tail appended

Protein stability index, by site and new letter:
E19: L 2.6 | N 2.86 | A 2.47 | P 2.79 | K 2.37 | D 2.92 | H 2.05 | F 2.51 | G 2.36 | W 2.12 | V 2.32 | M 2.53 | T 2.42 | C 2.15 | I 2.37 | Y 2.39 | R 1.63 | Q 2.33 | S 2.33
Q20: H 2.47 | C 2.09 | I 2.03 | G 2.32 | M 2.03 | V 2.84 | K 2.64 | Y 2.47 | A 2.23 | S 2.58 | E 2.52 | P 2.4 | N 2.55 | T 2.44 | W 2.46 | F 2.49 | D 2.93 | R 2.67 | L 2.54
D18: Y 1.5 | S 2.92 | Q 2.25 | F 2.04 | V 2.45 | N 2.3 | R 2.03 | W 2.17 | C 1.9 | P 2.47 | K 1.76 | I 1.92 | L 2.22 | G 2.38 | M 2.22 | H 2.38 | E 2.65 | T 2.56 | A 2.38
E16: T 2.36 | I 2.07 | H 2.08 | R 2.39 | M 1.93 | A 2.4 | V 1.87 | F 1.53 | C 2 | Q 2.55 | P 2.25 | W 1.94 | L 2.29 | Y 1.56 | N 2.15 | G 2.5 | K 2.87 | D 2.34 | S 2.8
K24: G 2.11 | F 2.21 | N 2.32 | W 2.54 | M 2.36 | T 2.5 | Y 2.49 | Q 2.9 | E 2.83 | R 2.9 | I 1.89 | S 2.8 | H 2.59 | A 2.72 | V 2.49 | L 2.12 | C 2.23 | D 2.68 | P 2.29
H21: Y 2.37 | M 2.69 | A 2.93 | D 3.02 | W 2.34 | N 3.07 | S 2.6 | Q 2.66 | T 2.69 | C 2.28 | I 1.98 | P 2.41 | V 2.28 | F 2.46 | G 2.5 | K 2.55 | E 2.85 | R 2.37 | L 2.25
F17: V 2.67 | H 2.66 | C 2.87 | I 2.6 | R 2.85 | A 2.68 | M 2.45 | N 2.76 | E 3.04 | D 3.03 | Q 3.28 | P 2.75 | S 2.64 | T 2.99 | L 2.54 | Y 2.91 | G 2.4 | W 2.57 | K 2.98
S15: R 2.41 | N 2.67 | P 2.42 | Y 2.08 | M 2.5 | Q 2.73 | T 2.41 | V 2.88 | W 2.27 | L 2.85
G22: V 2.12 | K 2.23 | R 2.51 | I 2.25 | E 2.56 | L 2.34 | Y 1.98 | P 2.48 | N 2.71 | C 2.35 | A 2.54 | D 2.15 | Q 2.36 | M 2.62 | F 1.97 | S 2.6 | W 2.23 | T 2.43 | H 3
K23: Q 2.81 | S 2.7 | R 2.34 | I 2.66 | C 2.3 | H 2.63 | M 2.25 | V 2.67 | N 2.66 | D 3.12 | L 2.53 | A 2.36 | G 2.27 | T 1.81 | F 2.07 | W 2.38 | P 2.33 | Y 2.2 | E 2.81
